The target of this test is radial spoke protein 9 (RSP9) (C. reinhardtii). The test can be described thus: cryo-EM structure.

As a reminder, the stoichiometry N is a count of units in the complex or per binding partner.

“radial spoke protein 9 (RSP9) (natural protein)”: the stoichiometry N was found to be 2.

These data come from publication PMC7855469.
